Article PMC2947466

The binders below were run against GST-Ist1-CTR (residues 296-335) (human) (assay: SPR).

Kd	Binder
4.6 µM	spastin MIT domain, purified (domain or fragment) HKQAFEYISIALRIDEDEKAGQKEQAVEWYKKGIEELEKGIAVIVTGQGEQCERARRLQAKMMTNLVMAKDRLQLL
471 µM	spastin F124D MIT domain, purified (domain or fragment) HKQADEYISIALRIDEDEKAGQKEQAVEWYKKGIEELEKGIAVIVTGQGEQCERARRLQAKMMTNLVMAKDRLQLL
10.4 µM	spartin MIT domain (residues 1-107), purified (domain or fragment) MEQEPQNGEPAEIKIIREAYKKAFLFVNKGLNTDELGQKEEAKNYYKQGIGHLLRGISISSKESEHTGPGWESARQMQQKMKETLQNVRTRLEILEKGLATSLQNDL
